In paper PMC6926458:

Experiments:
[1] = biological target: Fissurella latimarginata hemocyanin, native (Fissurella latimarginata); assay: negative-stain transmission electron microscopy; hemocyanins 0.6 mg/ml on parlodion-coated copper grids, 1-2% uranyl acetate; didecamers, decamers and dissociated structures counted in about 20 images
[2] = biological target: Concholepas concholepas hemocyanin, native (Concholepas concholepas); assay: as above

stoichiometry N [1] | stoichiometry N [2] | Substance
20 |  | Fissurella latimarginata hemocyanin, native (natural protein)
 | 20 | Concholepas concholepas hemocyanin, native (complex)
